Measurements from publication doi:10.1101/2021.02.05.429362 (bioRxiv, 2021).
Values joined by “and” are separate entries in the source; they are usually repeats but may differ in a detail not shown here. Identical values can stand only once. Like-named read-outs stand apart in the source and are kept apart here. Where no end group is shown, it is not given here.

Legend:
[1] = molecular target: T1, G3BP1-NTF2 (residues 1-139) (human (by the printed UniProt entry …)); test: ITC
[2] = molecular target: T1, G3BP1-NTF2 (residues 1-139); test: ITC; remark: listed apart in the source
G3BP1-NTF2 H31A = G3BP1-NTF2 H31A (human (by the printed UniProt entry …, UniProt Q13283, H31A)); test: ITC
[3] = molecular target: T1, G3BP1-NTF2 (residues 1-139); test: ITC; remark: listed apart in the source
[4] = molecular target: T1, G3BP1-NTF2 (residues 1-139); test: nanoDSF
[5] = molecular target: T1, G3BP1-NTF2 (residues 1-139); test: nanoDSF; remark: listed apart in the source
[6] = molecular target: T1, G3BP1-NTF2 (residues 1-139); test: nanoDSF; remark: listed apart in the source

Sequence of G3BP1-NTF2 H31A (human (Q13283 1-139 H31A): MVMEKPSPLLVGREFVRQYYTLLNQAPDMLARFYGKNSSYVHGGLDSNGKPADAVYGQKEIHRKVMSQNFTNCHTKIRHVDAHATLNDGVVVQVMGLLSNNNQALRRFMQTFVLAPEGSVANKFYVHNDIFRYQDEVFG

In the case of MALHSPQYIFGDFSPDEFNQFFVTPRSS (domain or fragment) [GFP-USP10^1-28], the Kd [1] is reported as 0.5 µM, the dH [2] is reported as -17 ± 1 kcal/mol and the Kd (G3BP1-NTF2 H31A) is reported as 3 µM. For the same binder, the dH (G3BP1-NTF2 H31A) was -18 kcal/mol and the Kd [3] was 1.5 ± 0.5 µM.

With RQRVQDLMAQMQGPYNFIQDSMLDFENQTLD [Caprin-1^356-386 peptide] the dTm [4] was 1.3 °C, the dTm [5] was 4 °C and the dTm [6] was 1.5 °C.

For {GFP}-RQRVQDLMAQMQGPYNFIQDSMADFENQTLD (domain or fragment) [GFP-Caprin-1^356-386 L378A], the Kd [2] was roughly 20 µM.

For {GFP}-RQRVQDLMAQMQGPYNFIQDSMLDFENQTLD (domain or fragment) [GFP-Caprin-1^356-386], the Kd [1] was 1.4 µM, the dH [2] was -18 kcal/mol and -17 kcal/mol and the Kd (G3BP1-NTF2 H31A) was 15 µM. The dH (G3BP1-NTF2 H31A) was -16 kcal/mol and the Kd [3] was 4 ± 2 µM.
